From patent US20160264649A1

Columns and labels:
Assay in all cases: cell-based or functional assay
[1] = target: HIV-1 92RW008 Env (HIV-1)
[2] = target: HIV-1 92RW009 Env (HIV-1)
[3] = target: HIV-1 92RW020 Env (HIV-1)
[4] = target: HIV-1 92RW021 Env (HIV-1)
[5] = target: HIV-1 92RW024 Env (HIV-1)
[6] = target: HIV-1 92RW026 Env (HIV-1)
[7] = target: HIV-1 92UG031 Env (HIV-1)
[8] = target: HIV-1 92UG037 Env (HIV-1)
[9] = target: HIV-1 93RW029 Env (HIV-1)
[10] = target: HIV-1 93UG077 Env (HIV-1)
[11] = target: HIV-1 94KE105 Env (HIV-1)
[12] = target: HIV-1 94UG103 Env (HIV-1)
[13] = target: HIV-1 MGRM-A-001 Env (HIV-1)
[14] = target: HIV-1 MGRM-A-002 Env (HIV-1)
[15] = target: HIV-1 MGRM-A-003 Env (HIV-1)
[16] = target: HIV-1 MGRM-A-004 Env (HIV-1)
[17] = target: HIV-1 MGRM-A-005 Env (HIV-1)
[18] = target: HIV-1 MGRM-A-006 Env (HIV-1)
[19] = target: HIV-1 MGRM-A-007 Env (HIV-1)
[20] = target: HIV-1 MGRM-A-008 Env (HIV-1)
[21] = target: HIV-1 MGRM-A-009 Env (HIV-1)
[22] = target: HIV-1 MGRM-A-010 Env (HIV-1)
[23] = target: HIV-1 MGRM-A-011 Env (HIV-1)
[24] = target: HIV-1 MGRM-A-012 Env (HIV-1)
[25] = target: HIV-1 MGRM-A-013 Env (HIV-1)
[26] = target: HIV-1 MGRM-A-014 Env (HIV-1)
[27] = target: HIV-1 VLGCA1 Env (HIV-1)
[28] = target: HIV-1 92UG046 Env (HIV-1)
[29] = target: HIV-1 93IN905 Env on pseudovirus (HIV-1)
[30] = target: HIV-1 98CN009 Env on pseudovirus (HIV-1)
[31] = target: HIV-1 JRCSF Env on pseudovirus (HIV-1) (UniProt P20871)
[32] = target: HIV-1 LAVIC_18 Env on pseudovirus (HIV-1)
[33] = target: HIV-1 MGRM-AE-008 Env (HIV-1)
[34] = target: HIV-1 MGRM-AG-005 Env (HIV-1)
[35] = target: HIV-1 MGRM-AG-006 Env (HIV-1)
[36] = target: HIV-1 MGRM-AG-012 Env (HIV-1)
[37] = target: HIV-1 MGRM-AG-013 Env (HIV-1)
[38] = target: HIV-1 MGRM-C-007 Env on pseudovirus (HIV-1)
[39] = target: HIV-1 MGRM-C-008 Env on pseudovirus (HIV-1)
[40] = target: HIV-1 MGRM-C-009 Env on pseudovirus (HIV-1)
[41] = target: HIV-1 MGRM-C-014 Env on pseudovirus (HIV-1)
[42] = target: HIV-1 MGRM-C-025 Env on pseudovirus (HIV-1)
[43] = target: HIV-1 MGRM-D-002 Env (HIV-1)
[44] = target: HIV-1 MGRM-D-013 Env (HIV-1)
[45] = target: HIV-1 MGRM-D-014 Env (HIV-1)
[46] = target: HIV-1 MGRM-D-021 Env (HIV-1)
[47] = target: HIV-1 MGRM-D-024 Env (HIV-1)
[48] = target: HIV-1 MGRM-D-029 Env (HIV-1)
[49] = target: HIV-1 MGRM-F1-017 Env (HIV-1)
[50] = target: HIV-1 MGRM-G-015 Env (HIV-1)
[51] = target: HIV-1 NL43 Env (HIV-1)
[52] = target: HIV-1 NL43 Env on pseudovirus (HIV-1)
[53] = target: HIV-1 QH0692.42 (Acute) Env on pseudovirus (HIV-1)
[54] = target: HIV-1 SC422661.8 (Acute) Env on pseudovirus (HIV-1)

1443_C16 (PG16) (TCN-116) (antibody), sequence (VH): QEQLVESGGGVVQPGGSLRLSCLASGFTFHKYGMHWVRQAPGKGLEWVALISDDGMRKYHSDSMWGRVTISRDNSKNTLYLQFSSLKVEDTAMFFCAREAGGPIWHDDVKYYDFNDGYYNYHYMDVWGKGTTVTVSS
1443_C16 (PG16) (TCN-116) (antibody), sequence (VL): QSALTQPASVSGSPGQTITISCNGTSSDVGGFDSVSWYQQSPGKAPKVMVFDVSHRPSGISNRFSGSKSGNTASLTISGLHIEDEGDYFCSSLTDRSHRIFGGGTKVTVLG

1443_C16 (PG16) (TCN-116) (antibody)
neutralization IC50 [1]: 0.002 µg/mL | neutralization IC50 [2]: 0.11 µg/mL | neutralization IC50 [3]: 0.28 µg/mL | neutralization IC50 [4]: 0.11 µg/mL | neutralization IC50 [5]: 0.08 µg/mL | neutralization IC50 [6]: 0.03 µg/mL | neutralization IC50 [7]: 0.43 µg/mL | neutralization IC50 [8]: 0.01 µg/mL | neutralization IC50 [9]: 3.83 µg/mL | neutralization IC50 [10]: > 50 µg/mL | neutralization IC50 [11]: 6.13 µg/mL | neutralization IC50 [12]: 0.04 µg/mL | neutralization IC50 [13]: > 50 µg/mL | neutralization IC50 [14]: 0.004 µg/mL | neutralization IC50 [15]: 2.65 µg/mL | neutralization IC50 [16]: 0.04 µg/mL | neutralization IC50 [17]: 0.09 µg/mL | neutralization IC50 [18]: > 50 µg/mL | neutralization IC50 [19]: 5.91 µg/mL | neutralization IC50 [20]: > 50 µg/mL | neutralization IC50 [21]: 0.01 µg/mL | neutralization IC50 [22]: 0.004 µg/mL | neutralization IC50 [23]: 0.24 µg/mL | neutralization IC50 [24]: 20.7 µg/mL | neutralization IC50 [25]: 0.09 µg/mL | neutralization IC50 [26]: 20.3 µg/mL | neutralization IC50 [27]: 0.18 µg/mL | IC50 (µg/ml), pseudovirus neutralization [28]: 1.42 µg/mL | IC50 [29]: 0.25 µg/mL | IC50 [30]: 5.76 µg/mL | IC50 [31]: 0.001 µg/mL | IC50 [32]: 0.02 µg/mL | IC50 (µg/ml), pseudovirus neutralization [33]: 3.25 µg/mL | IC50 (µg/ml), pseudovirus neutralization [34]: > 50 µg/mL | IC50 (µg/ml), pseudovirus neutralization [35]: > 50 µg/mL | IC50 (µg/ml), pseudovirus neutralization [36]: 25.1 µg/mL | IC50 (µg/ml), pseudovirus neutralization [37]: 0.31 µg/mL | IC50 [38]: 0.05 µg/mL | IC50 [39]: > 50 µg/mL | IC50 [40]: > 50 µg/mL | IC50 [41]: > 50 µg/mL | IC50 [42]: 0.04 µg/mL | IC50 (µg/ml), pseudovirus neutralization [43]: 0.01 µg/mL | IC50 (µg/ml), pseudovirus neutralization [44]: 0.11 µg/mL | IC50 (µg/ml), pseudovirus neutralization [45]: 0.003 µg/mL | IC50 (µg/ml), pseudovirus neutralization [46]: > 50 µg/mL | IC50 (µg/ml), pseudovirus neutralization [47]: 0.02 µg/mL | IC50 (µg/ml), pseudovirus neutralization [48]: > 50 µg/mL | IC50 (pseudovirus neutralization) [49]: > 50 µg/mL | IC50 (µg/ml), pseudovirus neutralization [50]: 5.33 µg/mL | neutralization IC50 [51]: < 0.0025 µg/mL | neutralization IC90 [51]: > 50 µg/mL | IC50 [52]: 0.02 µg/mL | IC50 [53]: > 50 µg/mL | IC50 [54]: 1.13 µg/mL

4E10 (antibody)
neutralization IC50 [1]: 14.5 µg/mL | neutralization IC50 [2]: > 50 µg/mL | neutralization IC50 [3]: 4.54 µg/mL | neutralization IC50 [4]: 4.87 µg/mL | neutralization IC50 [5]: 8.88 µg/mL | neutralization IC50 [6]: 12.9 µg/mL | neutralization IC50 [7]: 4.94 µg/mL | neutralization IC50 [8]: 8.84 µg/mL | neutralization IC50 [9]: 15.5 µg/mL | neutralization IC50 [10]: 10.6 µg/mL | neutralization IC50 [11]: 7.63 µg/mL | neutralization IC50 [12]: 4.97 µg/mL | neutralization IC50 [13]: 15.1 µg/mL | neutralization IC50 [14]: 6.45 µg/mL | neutralization IC50 [15]: 5.94 µg/mL | neutralization IC50 [16]: 3.14 µg/mL | neutralization IC50 [17]: 4.09 µg/mL | neutralization IC50 [18]: 9.87 µg/mL | neutralization IC50 [19]: 1.82 µg/mL | neutralization IC50 [20]: 7.59 µg/mL | neutralization IC50 [21]: 12 µg/mL | neutralization IC50 [22]: 14.4 µg/mL | neutralization IC50 [23]: 2.88 µg/mL | neutralization IC50 [24]: 4.27 µg/mL | neutralization IC50 [25]: 1.46 µg/mL | neutralization IC50 [26]: 1.74 µg/mL | neutralization IC50 [27]: 4.58 µg/mL | IC50 (µg/ml), pseudovirus neutralization [28]: 12.2 µg/mL | IC50 [29]: 1.26 µg/mL | IC50 [30]: 2.46 µg/mL | IC50 [31]: 3.3 µg/mL | IC50 [32]: > 50 µg/mL | IC50 (µg/ml), pseudovirus neutralization [33]: 0.94 µg/mL | IC50 (µg/ml), pseudovirus neutralization [34]: 2.13 µg/mL | IC50 (µg/ml), pseudovirus neutralization [35]: 1.76 µg/mL | IC50 (µg/ml), pseudovirus neutralization [36]: 0.86 µg/mL | IC50 (µg/ml), pseudovirus neutralization [37]: 2.61 µg/mL | IC50 [38]: 5.84 µg/mL | IC50 [39]: 2.97 µg/mL | IC50 [40]: 0.56 µg/mL | IC50 [41]: 2.48 µg/mL | IC50 [42]: 5.58 µg/mL | IC50 (µg/ml), pseudovirus neutralization [43]: 9.44 µg/mL | IC50 (µg/ml), pseudovirus neutralization [44]: 5.38 µg/mL | IC50 (µg/ml), pseudovirus neutralization [45]: 3.24 µg/mL | IC50 (µg/ml), pseudovirus neutralization [46]: 13.3 µg/mL | IC50 (µg/ml), pseudovirus neutralization [47]: 3.6 µg/mL | IC50 (µg/ml), pseudovirus neutralization [48]: 5.3 µg/mL | IC50 (pseudovirus neutralization) [49]: 4.92 µg/mL | IC50 (µg/ml), pseudovirus neutralization [50]: 1.07 µg/mL | neutralization IC50 [51]: 4.95 µg/mL | neutralization IC90 [51]: 29.6 µg/mL | IC50 [52]: 4.67 µg/mL | IC50 [53]: 12.7 µg/mL | IC50 [54]: 6.35 µg/mL
